± gives the standard deviation of the averaged measurements.
Tested on: Saccharomyces cerevisiae
Experiment: protein stability index of tFT-peptide fusion (C-terminal peptide) (PSI (0-1 scale)); higher = more stable (slower turnover)
Details: genetic background: doa10 deletion; temperature: 30 C
Procedure: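 MPS profiling in S. cerevisiae of the tFT-X12 degron library: putative degron peptides plus stable controls, 12 aa, fused to the C-terminus of a sfGFP-mCherry timer. Cells are FACS-sorted into 8 mCherry/sfGFP bins and deep-sequenced. PSI runs from 0 (unstable) to 1 (stable). Backgrounds are wild type, das1Δ and doa10Δ at 30 °C, and wild type, das1Δ, cdc34-1 and cdc53-1 at 37 °C; 2-3 technical replicates each.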
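Also: PSI is a weighted mean of sequencing reads over stability bins, variants kept only with over 10 reads, mCherry proximal and sfGFP distal, peptide attached via GGGS linker.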

Sequence	protein stability index
PIHILTHTYIGR	0.643 ± 0.014
PILRGRPTPAIL	0.681 ± 0.018
PLLVVPVPRALY	0.242 ± 0.0057
PLYFSVFSLLFL	0.478 ± 0.026
PPLLLFLSLAFL	0.239 ± 0.012
PPPLPPPSPSRP	0.695 ± 0.026
PPPPPPLPSSFP	0.666 ± 0.033
PPPYPPPPARSL	0.6825 ± 0.0033
PPRPLHPPCRPP	0.659 ± 0.024
PPSPPLPPPSPF	0.694 ± 0.036
PPSPPPPPPSPF	0.721 ± 0.031
PRHERPPRDNGH	0.6522 ± 0.0063
PRPSPPLPPPSS	0.673 ± 0.032
PRRVTVPGVPPL	0.643 ± 0.01
PRSLHVLSRFLP	0.599 ± 0.048
PSRRLRHFATSP	0.747 ± 0.038
PTFSPSLPPPRS	0.712 ± 0.027
PVTAVYFVLYIW	0.143 ± 0.01
PYLSAPLVATLS	0.234 ± 0.012
QDQWINTSLELS	0.685 ± 0.015
QLIDVGLLNCAA	0.412 ± 0.011
QWTVRNQGVMQR	0.65 ± 0.036
QYRLMQKKIVNI	0.119 ± 0.013
RAEASFFLPKVG	0.41 ± 0.013
RAQQRVKERYIE	0.517 ± 0.058
RCIRRWPYILKL	0.214 ± 0.0092

Sequence	protein stability index
RCSLFAKQVVSL	0.437 ± 0.021
RERRISRIPCLS	0.174 ± 0.0033
RFHFAAPPHRPS	0.694 ± 0.062
RFIYYCVDVFFS	0.0847 ± 0.031
RFLACSIRYLVY	0.227 ± 0.0073
RFRFRRTCLYAT	0.0931 ± 0.039
RGAVRVAWYPVL	0.492 ± 0.019
RGDCFLVLCVWR	0.348 ± 0.0047
RGGPPPCPLLAA	0.571 ± 0.035
RGGWVVVLGCVG	0.468 ± 0.021
RGLWAAIPRKCT	0.179 ± 0.027
RGPSQVIVAFFV	0.3186 ± 0.0031
RGSLLRWFLAAQ	0.289 ± 0.0095
RGSRLVPRLLRP	0.64 ± 0.02
RGWWWFVVVLCR	0.2215 ± 0.00025
RHIRGLNLIKLI	0.0672 ± 0.022
RHQTDIVTATQK	0.642 ± 0.062
RHVFLRIKVLNL	0.344 ± 0.0053
RIFRCYSFYVVV	0.272 ± 0.029
RILFSPSTFYLF	0.214 ± 0.024
RIRRVMHLYTNN	0.0717 ± 0.0049
RISYKTKINELI	0.262 ± 0.0063
RIVLRPPFNSVA	0.176 ± 0.0064
RKKKRNKKKMIM	0.362 ± 0.024
RLDAPGLSRTEN	0.66 ± 0.026
RLFYRLSFVYFL	0.169 ± 0.0068

Sequence	protein stability index
RLLLLLTCIIYI	0.183 ± 0.026
RLPVMFWFVCSF	0.47 ± 0.038
RLVRILSTILLN	0.0769 ± 0.029
RLVVSRNFYRLC	0.125 ± 0.0022
RLWLPLSLVLWV	0.414 ± 0.03
RMCEILGIRHLI	0.137 ± 0.013
RMCPWVSVRVGV	0.3537 ± 0.0019
RPRRARLPNFLA	0.0688 ± 0.021
RPRVAGLMTLVS	0.459 ± 0.03
RRSRLYKKAGLM	0.179 ± 0.001
RSIVFRVSRRLN	0.13 ± 0.0084
RTKIKKKIMKNI	0.473 ± 0.052
RVCCLSFFFVFL	0.427 ± 0.0094
RVCYQIAISLPI	0.428 ± 0.022
RVDVSVLWNRRS	0.284 ± 0.026
RVEPYDLARRVL	0.652 ± 0.025
RVITRMLLMVIR	0.493 ± 0.0081
RVPCCLSFVPVC	0.363 ± 0.0097
RVSECVSVVGWM	0.619 ± 0.024
RVYLLGLFVRSG	0.325 ± 0.017
RWCLELLWITSC	0.0892 ± 0.0011
RWPLVIRSLIVF	0.214 ± 0.00073
RWRRWCVVLFVV	0.0648 ± 0.015
RYVFAFRRNYFC	0.171 ± 0.014
RYVVVGACIQVV	0.274 ± 0.015
SDAIKITFIIHN	0.425 ± 0.01

Same assay, conditions: genetic background: wild type; temperature: 30 C

Sequence	protein stability index
PIHILTHTYIGR	0.664 ± 0.012
PILRGRPTPAIL	0.668 ± 0.023
PLLVVPVPRALY	0.281 ± 0.013
PLYFSVFSLLFL	0.41 ± 0.021
PPLLLFLSLAFL	0.271 ± 0.028
PPPLPPPSPSRP	0.6727 ± 0.0031
PPPPPPLPSSFP	0.655 ± 0.01
PPPYPPPPARSL	0.689 ± 0.022
PPRPLHPPCRPP	0.657 ± 0.013
PPSPPLPPPSPF	0.67 ± 0.018
PPSPPPPPPSPF	0.679 ± 0.033
PRHERPPRDNGH	0.654 ± 0.025
PRPSPPLPPPSS	0.677 ± 0.021
PRRVTVPGVPPL	0.66 ± 0.01
PRSLHVLSRFLP	0.606 ± 0.031
PSRRLRHFATSP	0.703 ± 0.0095
PTFSPSLPPPRS	0.694 ± 0.022
PVTAVYFVLYIW	0.167 ± 0.026
PYLSAPLVATLS	0.28 ± 0.045
QDQWINTSLELS	0.68 ± 0.035
QLIDVGLLNCAA	0.45 ± 0.027
QWTVRNQGVMQR	0.681 ± 0.051
QYRLMQKKIVNI	0.147 ± 0.024
RAEASFFLPKVG	0.446 ± 0.01
RAQQRVKERYIE	0.581 ± 0.067
RCIRRWPYILKL	0.206 ± 0.042

Sequence	protein stability index
RCSLFAKQVVSL	0.43 ± 0.0057
RERRISRIPCLS	0.185 ± 0.035
RFHFAAPPHRPS	0.668 ± 0.034
RFIYYCVDVFFS	0.1 ± 0.034
RFLACSIRYLVY	0.277 ± 0.018
RFRFRRTCLYAT	0.14 ± 0.0057
RGAVRVAWYPVL	0.517 ± 0.0095
RGDCFLVLCVWR	0.362 ± 0.026
RGGPPPCPLLAA	0.584 ± 0.011
RGGWVVVLGCVG	0.486 ± 0.018
RGLWAAIPRKCT	0.223 ± 0.023
RGPSQVIVAFFV	0.371 ± 0.026
RGSLLRWFLAAQ	0.31 ± 0.029
RGSRLVPRLLRP	0.656 ± 0.03
RGWWWFVVVLCR	0.197 ± 0.012
RHIRGLNLIKLI	0.0745 ± 0.011
RHQTDIVTATQK	0.685 ± 0.014
RHVFLRIKVLNL	0.397 ± 0.015
RIFRCYSFYVVV	0.267 ± 0.031
RILFSPSTFYLF	0.265 ± 0.031
RIRRVMHLYTNN	0.0844 ± 0.012
RISYKTKINELI	0.287 ± 0.052
RIVLRPPFNSVA	0.217 ± 0.018
RKKKRNKKKMIM	0.342 ± 0.09
RLDAPGLSRTEN	0.646 ± 0.078
RLFYRLSFVYFL	0.175 ± 0.016

Sequence	protein stability index
RLLLLLTCIIYI	0.16 ± 0.046
RLPVMFWFVCSF	0.466 ± 0.026
RLVRILSTILLN	0.1 ± 0.014
RLVVSRNFYRLC	0.135 ± 0.014
RLWLPLSLVLWV	0.341 ± 0.05
RMCEILGIRHLI	0.158 ± 0.01
RMCPWVSVRVGV	0.391 ± 0.013
RPRRARLPNFLA	0.073 ± 0.0067
RPRVAGLMTLVS	0.459 ± 0.032
RRSRLYKKAGLM	0.181 ± 0.037
RSIVFRVSRRLN	0.161 ± 0.025
RTKIKKKIMKNI	0.532 ± 0.016
RVCCLSFFFVFL	0.391 ± 0.0052
RVCYQIAISLPI	0.432 ± 0.02
RVDVSVLWNRRS	0.312 ± 0.038
RVEPYDLARRVL	0.628 ± 0.015
RVITRMLLMVIR	0.359 ± 0.011
RVPCCLSFVPVC	0.405 ± 0.027
RVSECVSVVGWM	0.633 ± 0.0064
RVYLLGLFVRSG	0.371 ± 0.031
RWCLELLWITSC	0.0824 ± 0.015
RWPLVIRSLIVF	0.22 ± 0.017
RWRRWCVVLFVV	0.0689 ± 0.013
RYVFAFRRNYFC	0.174 ± 0.026
RYVVVGACIQVV	0.314 ± 0.012
SDAIKITFIIHN	0.46 ± 0.009

Reference: the supplement of paper PMC10724198
